Results as given in the DeepSol protein solubility set.

Assay: soluble on expression in E. coli; label from the status in PepcDB or PDB records

Soluble on expression in E. coli, not soluble:
MGSDKIHHHHHHMNPKMIRSLKAFTRTVELNSMSAAANELHMTVSAISQQLQRLENDNGISLFHRNTRSLSLTEAGQVFYQSCLDMLAIAAKNQERWDQLTNQPQGQIKIIAPVGFGGGLLSEPLKQLQHEFANVSFQLHMTDEPIDLITAGADLAIRIGPLADSTLYARHLADWHMVPCIAAEHPAAENSIKSFDDLPEGCFIGHIPSLPNKDFPKPKVLLNNMQTVVQLTLDGVGYALLPQPEIKHYIESGRLLRLLPEWEGSPYSVHAVLPIKDNIPAKTERTIEVLSHFFHRL
MGSDKIHHHHHHMNRELILKALIDWNFWYKNQFVGIEREYSDQLLDLLEKGLAISVIGVKRSGKSTIINQVVKKLIEKKGEDPFDTLIVNFEDSRFGDIRTANDLFSLYELYKELRKKKKDSKPYIFLDEVQKIKGWEGFVRSIVDRKEANIVISGSTASVNNKSVREVLAGRHLILEVFPLSFKEFLEFKNIRLETELDMIAKESEIKVLFSEYLSYGGFPLVVSNERDKEKILLQLYEDIIFKDVISECNIRNEEEAKNLAIFYISNVGNKIRFRKISRSLNIPFRNVQRYTECMKNAYLIFFVKALSPKLSEMAKYDKKVYCIDNGISNVLGYRLNQNIGSLFENLIFLELLRRYGINNVFYYRGRRGEVDFVVKVKDEIREIYQVTYQLSDVERELKGIEEFLKIRKTKAYIITFDDEGEIKVGDDLVKVVKGWKWLLLE
MGSDKIHHHHHHMNRIQLSQLAVLATVAETSSFRKAAEELGIAPSAVSHAVSALEASLGVRLLARTTRSVAPTEEGRQLLQKLAPALADIGTALETLAENKSNPAGPLRITMPALAAEDLIVPRLGDFLGLYPDIQLELITNDQFEDIVEKGFDAGLRLGEHLETDMVAVKASGPISGTIIGAPSYFERHPLPVHPHDLMEHRCIRRRFSSGRIYRWELEKHGKQIAVDVPDVLTLADQRLIRLAALKGVGLAFVFDQRVDKDIREGRLIRVLEDWCPPFDGFYIYYPTRRQMRPALRAFVDFFRHRS
MGSDKIHHHHHHMNRISVVILNWNGCEMLRSFLPSVLRYSEAEGVEVCVADNGSTDQSVEMLRREFPSVRRILLDGNHGFADGYNLALRQVEAEYVVLLNSDVEVTGQWLQPMAAYLDAHPEVAACQPKIRSWRQKEWFEYAGAAGGFIDRYGYPFCRGRVMGVVEADRGQYDTVLPIFWATGAAMFIRLADYREAGGLDGRFFAHMEEIDLCWRLRARGRGIVCIPQSVVYHVGGATLKKENPHKTFLNFRNNLVMLYKNLPDRELAGVMRVRCWLDYIAAATFALKGQPANAKAVVRARREFKLLRDSFRDARAENLRKTSSHFIPERIKSSILVQFYVKGRKFFSQLSDLKG
MGSDKIHHHHHHMNRLRTSFQQTTGQISGHGKRNVGVLKTAFAAVADEMASDQYGTGAIIEPFEQKFADVLGMDDAVFFPSGTMAQQVALRIWSDETDNRTVAYHPLCHLEIHEQDGLKELHPIETILVGAADRLMTLDEIKALPDIACLLLELPQREIGGVAPAFSELETISRYCRERGIRLHLDGARLFEMLPYYEKTAAEIAGLFDSIYISFYKGLGGIAGAILAGPAAFCQTARIWKRRYGGDLISLYPYIVSADYYYELRKDRMGQYYEQAKQLAEQFNALPGVHTTPEVPVSNMFHLHFDGQAADISPKLEQVQEETGLGFVGYLVDKDGYCSTEISVGDAYGELDQQTRDAGFARLRQAFS
MGSDKIHHHHHHMNSHWSEYWQQGHTTSFGEALSGNYEGVLKNVWEPVFDGLTENFLVVDVGTGNGSLPLLLRDGLSKVDLTGKVIGVDLAEVTLANSVSNNNQNIDIALMSNTRCEQLPFESNSVDLYISQFGFEYSNIEQSLEEATRVLKDDGQFVIVCHHNRSMILNRNRRILTLIDKDEVNLLINCLGKMANAMGNVSNQEDVERIKKDLQCEQIRAEINDLIKLLVMFDEAAAQDCDLMRFVAQFFKAGLFWPVTKKLEFIEFITIQMDTLKLRLTELVNAAFDETKLATFIAKFHQNNMVLNELKVLKNEQNEVLGWYLHGSKFI
MGSDKIHHHHHHMNSKNPRTTIPAPLQSILSAIPLFAPLPPDDINTLSKLIEIQVFPKNRTILHEADTANYMYLVLAGKVRVVQHSNDGTEQVLAIHRKGAFFGEMALLDGRTSPATLIAHEDATVGLIARTAFENQILTNDRMLRQIISVLCSRLRESWFLMKLSRFSSAEQKVRGVLKYLGTQYGVDDSRGKILSIKLTHRTVAGYASVSRETASRILGRFSRAGEIELLASRRMLLKPTLFLNPPFL
MGSDKIHHHHHHMNSPKNSLYEEKSGHYYNAVNPNLLKHIKKEWKEVLDIGCSSGALGAAIKENGTRVSGIEAFPEAAEQAKEKLDHVVLGDIETMDMPYEEEQFDCVIFGDVLEHLFDPWAVIEKVKPYIKQNGVILASIPNVSHISVLAPLLAGNWTYTEYGLLDKTHIRFFTFNEMLRMFLKAGYSISKVDRVYVDHKMYEPLIEELYGICKKYRLGSGFMAETVVFQYIIEAEKSQL
MGSDKIHHHHHHMNTEHAAYQIADELGGLELLNAHYHKQNFSRHTHEGYTVGVIETGAQRFYRTGGNHVAPKHSIILVNADEVHNGCSATEGGWSYRAMYPVPAQFAGINSERAANSGAPYFPEPVVYDPELAELLRLTFTTLDTSDNRLLRESLVYSSLTQLMARHGKHRPSDNLAAMAKPALALVKSFIDDHPAADISLEELATLAGLSPYYLLKQFQRYYGLPPHAYQIQARVRLAKGKIKQGTRLLDVALDCGFHDQSHLNRHFKKTVGVTPGQFAKEIGRNIIQA
MGSDKIHHHHHHMNTRDLDYFRALVDCQNYTMVAKQFAVSQPAVTQAIHRLEKEFAVKLVIQDRRHQQTNITRAGQLLYKNARQIQASLQLAHREIQSTLQTDIRFGLPPIIGTLYFPQIAEKLLQNGLLQQLKITETGSDELLRKLVHGEINIALLGSYLPFDLPTVRAVHLGARPFSIIVSPQNSLAKQAAVSFKNLGQAQFIGLDGKYVHPQAFRAYCDFAGVHPEVIYRTPDISWVKALVKANLGISLLVRDVVKADDGVVCLEIKDQLPVSFNISVVTRAGYLPTTDEQRFIDQLLKMKI
MGSDKIHHHHHHMNTSYLIDFLENKQVSTITKTKHSYLTYHGLEEGYTYVLKKGIVKTSIILKNGREFNLSYINSTDIVSLLRDEISAYTASPLNVRIESDEAIFYRIPRKTFWDYVNHDTHLQDYVRDYYRIKLTQNIKSLQWMTMNGKKGAVCAFIYKLIDIFGRRGATGILIDFPITNEEIANFCGISTRNSVNRIIHDLKEQHVIDIKNQKIFIYDENYLREFTI
MGSDKIHHHHHHMNVAERKKQTVVSSGISGLDEILRGGLPASNLYIVQGAPGSGKTTAALQFLRAGVALGEPCIYVSLSQTRAELEAIALSHGWTLDGIRVEELSASDSINRAADQTIFQTTELRLDETRKAIESAIEEHKPSRLVYDSLLEIRLITADSPRFRRELIAFKAFLAQRNIVALLLDTQTSETDRTGEEVDGIAHGVIRLDKSLEEYGGVRRRIEVSKMRGVPVADGYHDMAIREGEGVVVFPRIVPGAAARTVKPQLIKSGVDTLDEMFGGGQESGTTTLVIGQAGTGKSTMASLYATAALKRGESVGLFLFEERIETFFRRSEGLGMALRQFHEDGQLILRDFNPNEISPGEFGQIVQQSVNSEKVKVVVIDSFTGYLNSLPHREKAVRDIQSLLKYLARAGVLTILIVAQHGLLGQGVGIDVDVSFLGDTVLLLRIAEHEGRLRRSITVVKKRHGPHDLDVRELFIQSSGVSVIAYNPLPEV
MGSDKIHHHHHHMNVHKIVWQEGMLLRPQHLQHNDRYYDNQMKARTQLLGSYNWGFLALELDRQFLNMGKLVISQASGVLPDGSLFELGGNTEPLALDVPPNTSNVPIYLALPLVTGNHIEARRPEQAEVLARYTAYDLEVADSNAGEDSMVQVSCARPDFRLLLGEQQSDQAYVKLKVAVVLDSTPDGVISLDPDFVPSYLHAHASAYLLSCLKEVISMLGHRGDTIAERIRSNGKVGGAEVGDFMMLQLINRTELLLRHYLGLEQVHPEQLYRVLLTMLGDLATFGSESKRPRLDSRYQHSDQGASFRRLMEAIRQVLSMVLEQHAIELPLQARQYGILVSPLHDHKLLGSASFVLAASANCESEELRQRLPAHLKVGAVEHIRQLVNLHLPGIRVKPLPVAPRQIPFHSNKTYFILEPNAEDMAQLERSGGFAFHVSGEFSELELKFWAIRN
